Test results as given in patent US6849727.
No end group written: not given here.

Legend:
[1] = biological target: rat spinal cord membrane receptor; assay: competition binding, rat spinal cord membranes (SEM 0; may be a floor value)
[2] = biological target: rat neuropeptide FF receptor (NPFF1) (rat) (UniProt Q9EP86); assay: competition vs [125I]D-Tyr-NPFF, COS-7 membranes (SEM 0; may be a floor value)
[3] = biological target: rat spinal cord membrane receptor; assay: competition binding, rat spinal cord membranes

Chain of rat neuropeptide FF receptor (NPFF1) (rat) (Q9EP86 whole entry): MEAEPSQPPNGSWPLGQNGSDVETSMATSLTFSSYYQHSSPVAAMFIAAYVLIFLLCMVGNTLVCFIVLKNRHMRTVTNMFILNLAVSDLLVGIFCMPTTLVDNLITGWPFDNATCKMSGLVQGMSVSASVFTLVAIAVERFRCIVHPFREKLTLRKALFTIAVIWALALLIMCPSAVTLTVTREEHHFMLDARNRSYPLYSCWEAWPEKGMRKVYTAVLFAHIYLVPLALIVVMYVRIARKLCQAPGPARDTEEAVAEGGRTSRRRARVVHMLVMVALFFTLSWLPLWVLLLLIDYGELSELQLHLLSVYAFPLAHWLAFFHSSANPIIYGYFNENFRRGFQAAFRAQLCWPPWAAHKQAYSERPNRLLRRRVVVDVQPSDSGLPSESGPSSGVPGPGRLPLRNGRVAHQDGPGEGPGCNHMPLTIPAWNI

Row | pKi [1] | pKi [2] | pKi [3] | Molecule
1 |  | 5 |  | Tyr-MIF-1 (peptide)
2 |  |  | 9.05 | rat NPFF (FLFQPQRF-NH2) (peptide)
3 |  |  | 9 | AGEGLSSPFWSLAAPQRF-NH2 [rat A-18-F-amide (…-NH2)]
4 |  |  | 6.39 | PDVDHVFLRF-NH2 [Schisto(FLRFNH2) (Pro-Asp-Val-Asp-His-Val-Phe-Leu-Arg-Phe-amide)]

Continued, molecule first:

Row | Molecule | pKi [1] | pKi [2] | pKi [3]
5 | Met5-Arg6-Phe7-Enk-OH (peptide) | 5 | 5 | 
6 | H-KNQFIRF-NH2 [AF-1 (FMRF-like peptide H2N-Lys-Asn-Gln-Phe-Ile-Arg-Phe-NH2)] |  |  | 7.56
7 | H-KHQYLRF-NH2 [AF-2 (H-Lys-His-Gln-Tyr-Leu-Arg-Phe-NH2)] |  |  | 7.96
